# Source: patent US20220040297A1 (Chugai, published 2022)
# Target: CD3ε homodimer protein (human, UniProt P07766 23-126, limits assumed)
# Assay: SPR, immobilized CD3ε homodimer;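 note: biacore T200 surface plasmon resonance at 25 °C, antibody variants flowed as analytes over amine-coupled CD3ε homodimer on a CM4 chip, variant binding amount divided by that of GLS3000 antibody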
# Description: Each one-amino acid altered form constructed, expressed, and purified in the paragraph (6-2) was evaluated using Biacore T200 (GE Healthcare Japan Corp.). An appropriate amount of CD3ε homodimer protein was immobilized onto Sensor chip CM4 (GE Healthcare Japan Corp.) by the amine coupling method. Then, the antibody having an appropriate concentration was injected thereto as an analyte and allowed to interact with the CD3ε homodimer protein on the sensor chip. Then, the sensor chip was regenerated by the injection of 10 mmol/L glycine-HCl (pH 1.5). The assay was conducted at 25° C., and HBS-EP+ (GE Healthcare Japan Corp.) was used as a running buffer. […] Each parameter was calculated using Biacore T200 Evaluation Software (GE Healthcare Japan Corp.).
# Specifically, when the amount of the GLS3000-containing antibody bound was defined as X and the amount of the L chain one-amino acid altered form bound was defined as Y, a value of Z (ratio of amounts bound)=Y/X was used.
# Sequence of CD3ε homodimer protein (P07766 23-126 limits assumed): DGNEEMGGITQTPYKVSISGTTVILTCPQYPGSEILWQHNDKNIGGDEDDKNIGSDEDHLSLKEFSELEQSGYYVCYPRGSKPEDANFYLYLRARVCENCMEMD
row,Binder,ratio of amounts bound (vs GLS3000)
1,"GLS3000 T92S (antibody, name in Kabat numbering, V domains shown, one-arm format as m2) VH: QVQLVESGGGVVQPGRSLRLSCAASGFTFSNAWMHWVRQAPGKGLEWVAQIKAKSNNYATYYAESVKGRFTISRDDSKNSLYLQMNSLKTEDTAVYYCRYVHYGAYYGVDAWGQGTTVTVSS VL: DIVMTQSPLSLPVTPGEPASISCRSSQSLVHSNRNTYLHWYQQKPGQAPRLLIYKVSNRFSGVPDRFSGSGSGTDFTLKISRVEAEDVGVYYCGQGSQVPYTFGQGTKLEIK",0.96
2,"GLS3000 T97P (antibody, name in Kabat numbering, V domains shown, one-arm format as m2) VH: QVQLVESGGGVVQPGRSLRLSCAASGFTFSNAWMHWVRQAPGKGLEWVAQIKAKSNNYATYYAESVKGRFTISRDDSKNSLYLQMNSLKTEDTAVYYCRYVHYGAYYGVDAWGQGTTVTVSS VL: DIVMTQSPLSLPVTPGEPASISCRSSQSLVHSNRNTYLHWYQQKPGQAPRLLIYKVSNRFSGVPDRFSGSGSGTDFTLKISRVEAEDVGVYYCGQGTQVPYPFGQGTKLEIK",0.31
3,"GLS3000 V27cI (antibody, name in Kabat numbering, V domains shown, one-arm format as m2) VH: QVQLVESGGGVVQPGRSLRLSCAASGFTFSNAWMHWVRQAPGKGLEWVAQIKAKSNNYATYYAESVKGRFTISRDDSKNSLYLQMNSLKTEDTAVYYCRYVHYGAYYGVDAWGQGTTVTVSS VL: DIVMTQSPLSLPVTPGEPASISCRSSQSLIHSNRNTYLHWYQQKPGQAPRLLIYKVSNRFSGVPDRFSGSGSGTDFTLKISRVEAEDVGVYYCGQGTQVPYTFGQGTKLEIK",0.96
4,"GLS3000 V27cE (antibody, name in Kabat numbering, V domains shown, one-arm format as m2) VH: QVQLVESGGGVVQPGRSLRLSCAASGFTFSNAWMHWVRQAPGKGLEWVAQIKAKSNNYATYYAESVKGRFTISRDDSKNSLYLQMNSLKTEDTAVYYCRYVHYGAYYGVDAWGQGTTVTVSS VL: DIVMTQSPLSLPVTPGEPASISCRSSQSLEHSNRNTYLHWYQQKPGQAPRLLIYKVSNRFSGVPDRFSGSGSGTDFTLKISRVEAEDVGVYYCGQGTQVPYTFGQGTKLEIK",0.61
5,"GLS3000 V27cD (antibody, name in Kabat numbering, V domains shown, one-arm format as m2) VH: QVQLVESGGGVVQPGRSLRLSCAASGFTFSNAWMHWVRQAPGKGLEWVAQIKAKSNNYATYYAESVKGRFTISRDDSKNSLYLQMNSLKTEDTAVYYCRYVHYGAYYGVDAWGQGTTVTVSS VL: DIVMTQSPLSLPVTPGEPASISCRSSQSLDHSNRNTYLHWYQQKPGQAPRLLIYKVSNRFSGVPDRFSGSGSGTDFTLKISRVEAEDVGVYYCGQGTQVPYTFGQGTKLEIK",0.32
6,"GLS3000 T92Y (antibody, name in Kabat numbering, V domains shown, one-arm format as m2) VH: QVQLVESGGGVVQPGRSLRLSCAASGFTFSNAWMHWVRQAPGKGLEWVAQIKAKSNNYATYYAESVKGRFTISRDDSKNSLYLQMNSLKTEDTAVYYCRYVHYGAYYGVDAWGQGTTVTVSS VL: DIVMTQSPLSLPVTPGEPASISCRSSQSLVHSNRNTYLHWYQQKPGQAPRLLIYKVSNRFSGVPDRFSGSGSGTDFTLKISRVEAEDVGVYYCGQGYQVPYTFGQGTKLEIK",0.33

# Second part, the binder after the results:
row,ratio of amounts bound (vs GLS3000),Binder
1,0.77,"GLS3000 V27cY (antibody, name in Kabat numbering, V domains shown, one-arm format as m2) VH: QVQLVESGGGVVQPGRSLRLSCAASGFTFSNAWMHWVRQAPGKGLEWVAQIKAKSNNYATYYAESVKGRFTISRDDSKNSLYLQMNSLKTEDTAVYYCRYVHYGAYYGVDAWGQGTTVTVSS VL: DIVMTQSPLSLPVTPGEPASISCRSSQSLYHSNRNTYLHWYQQKPGQAPRLLIYKVSNRFSGVPDRFSGSGSGTDFTLKISRVEAEDVGVYYCGQGTQVPYTFGQGTKLEIK"
2,0.32,"GLS3000 V51P (antibody, name in Kabat numbering, V domains shown, one-arm format as m2) VH: QVQLVESGGGVVQPGRSLRLSCAASGFTFSNAWMHWVRQAPGKGLEWVAQIKAKSNNYATYYAESVKGRFTISRDDSKNSLYLQMNSLKTEDTAVYYCRYVHYGAYYGVDAWGQGTTVTVSS VL: DIVMTQSPLSLPVTPGEPASISCRSSQSLVHSNRNTYLHWYQQKPGQAPRLLIYKPSNRFSGVPDRFSGSGSGTDFTLKISRVEAEDVGVYYCGQGTQVPYTFGQGTKLEIK"
3,0.3,"GLS3000 V27cP (antibody, name in Kabat numbering, V domains shown, one-arm format as m2) VH: QVQLVESGGGVVQPGRSLRLSCAASGFTFSNAWMHWVRQAPGKGLEWVAQIKAKSNNYATYYAESVKGRFTISRDDSKNSLYLQMNSLKTEDTAVYYCRYVHYGAYYGVDAWGQGTTVTVSS VL: DIVMTQSPLSLPVTPGEPASISCRSSQSLPHSNRNTYLHWYQQKPGQAPRLLIYKVSNRFSGVPDRFSGSGSGTDFTLKISRVEAEDVGVYYCGQGTQVPYTFGQGTKLEIK"
4,0.84,"GLS3000 V51G (antibody, name in Kabat numbering, V domains shown, one-arm format as m2) VH: QVQLVESGGGVVQPGRSLRLSCAASGFTFSNAWMHWVRQAPGKGLEWVAQIKAKSNNYATYYAESVKGRFTISRDDSKNSLYLQMNSLKTEDTAVYYCRYVHYGAYYGVDAWGQGTTVTVSS VL: DIVMTQSPLSLPVTPGEPASISCRSSQSLVHSNRNTYLHWYQQKPGQAPRLLIYKGSNRFSGVPDRFSGSGSGTDFTLKISRVEAEDVGVYYCGQGTQVPYTFGQGTKLEIK"
5,0.64,"GLS3000 V51E (antibody, name in Kabat numbering, V domains shown, one-arm format as m2) VH: QVQLVESGGGVVQPGRSLRLSCAASGFTFSNAWMHWVRQAPGKGLEWVAQIKAKSNNYATYYAESVKGRFTISRDDSKNSLYLQMNSLKTEDTAVYYCRYVHYGAYYGVDAWGQGTTVTVSS VL: DIVMTQSPLSLPVTPGEPASISCRSSQSLVHSNRNTYLHWYQQKPGQAPRLLIYKESNRFSGVPDRFSGSGSGTDFTLKISRVEAEDVGVYYCGQGTQVPYTFGQGTKLEIK"
6,0.81,"GLS3000 V51I (antibody, name in Kabat numbering, V domains shown, one-arm format as m2) VH: QVQLVESGGGVVQPGRSLRLSCAASGFTFSNAWMHWVRQAPGKGLEWVAQIKAKSNNYATYYAESVKGRFTISRDDSKNSLYLQMNSLKTEDTAVYYCRYVHYGAYYGVDAWGQGTTVTVSS VL: DIVMTQSPLSLPVTPGEPASISCRSSQSLVHSNRNTYLHWYQQKPGQAPRLLIYKISNRFSGVPDRFSGSGSGTDFTLKISRVEAEDVGVYYCGQGTQVPYTFGQGTKLEIK"
7,0.84,"GLS3000 V27cL (antibody, name in Kabat numbering, V domains shown, one-arm format as m2) VH: QVQLVESGGGVVQPGRSLRLSCAASGFTFSNAWMHWVRQAPGKGLEWVAQIKAKSNNYATYYAESVKGRFTISRDDSKNSLYLQMNSLKTEDTAVYYCRYVHYGAYYGVDAWGQGTTVTVSS VL: DIVMTQSPLSLPVTPGEPASISCRSSQSLLHSNRNTYLHWYQQKPGQAPRLLIYKVSNRFSGVPDRFSGSGSGTDFTLKISRVEAEDVGVYYCGQGTQVPYTFGQGTKLEIK"
8,0.51,"GLS3000 V27cS (antibody, name in Kabat numbering, V domains shown, one-arm format as m2) VH: QVQLVESGGGVVQPGRSLRLSCAASGFTFSNAWMHWVRQAPGKGLEWVAQIKAKSNNYATYYAESVKGRFTISRDDSKNSLYLQMNSLKTEDTAVYYCRYVHYGAYYGVDAWGQGTTVTVSS VL: DIVMTQSPLSLPVTPGEPASISCRSSQSLSHSNRNTYLHWYQQKPGQAPRLLIYKVSNRFSGVPDRFSGSGSGTDFTLKISRVEAEDVGVYYCGQGTQVPYTFGQGTKLEIK"
9,0.33,"GLS3000 V51D (antibody, name in Kabat numbering, V domains shown, one-arm format as m2) VH: QVQLVESGGGVVQPGRSLRLSCAASGFTFSNAWMHWVRQAPGKGLEWVAQIKAKSNNYATYYAESVKGRFTISRDDSKNSLYLQMNSLKTEDTAVYYCRYVHYGAYYGVDAWGQGTTVTVSS VL: DIVMTQSPLSLPVTPGEPASISCRSSQSLVHSNRNTYLHWYQQKPGQAPRLLIYKDSNRFSGVPDRFSGSGSGTDFTLKISRVEAEDVGVYYCGQGTQVPYTFGQGTKLEIK"
